From paper PMC6969876, “NADPH biosensor-based identification of an alcohol dehydrogenase variant with improved catalytic properties caused by a single charge reversal at the protein surface” (AMB Express, 2020)

Target: LbADH^K71E, variant of the NADPH-dependent alcohol dehydrogenase of Lactobacillus brevis, with N-terminal Strep-tag II (Lactobacillus brevis)
Assay: SEC; Superdex 200 increase 10/300 GL, buffer A (50 mM triethanolamine hydrochloride, 1 mM MgCl2, pH 7.0), 0.75 mL/min; apparent native mass from a calibration curve with carbonic anhydrase, bovine serum albumin, alcohol dehydrogenase and beta-amylase; affinity-purified protein loaded

LbADH^K71E, variant of the NADPH-dependent alcohol dehydrogenase of Lactobacillus brevis, with N-terminal Strep-tag II (enzyme)
stoichiometry N: 4
